{"source": "patent US20230346919A1", "target": "SARS-CoV-2 spike SΔ21 displayed on VSV-eGFP-SARS-CoV-2-SΔ21 particles (SARS-CoV-2 isolate Wuhan-Hu-1) (UniProt P0DTC2)", "assay": "cell-based or functional assay", "data": [{"substance": "human ACE2-Fc (hACE2 residues 1-615, HRV-3C site, human IgG1 Fc) (from UniProt Q9BYF1 18-615) (Fc fusion)", "values": [{"measurement": "EC50, inhibition of VSV-SARS-CoV-2-SΔ21 infection (GRNT, Vero E6 cells)", "value": 29, "unit": "µg/mL"}]}]}
